The values below come from patent publication US20100256332A1, “GLP-1 Fusion Peptides, Their Production and Use” (BIOCOMPATIBLES UK LTD, priority 2007, published 2010).

This assay deals with type II diabetic mice (C57BUKs-Lepr db/db). The assay can be described thus: In vivo bioactivity in type II diabetic mice. More on the design: species or system mouse. The note with it: 5 μg peptide s.c. twice a day, Day 2, 4, 7, 10, overnight fasted. How it is done:
11-week-old type II diabetic mice (C57BUKs-Lepr^db/db, Harlan) were treated with 5 μg peptide by subcutaneous injection twice a day at 9 a.m. and 5 p.m. (n=5 per group).
Blood glucose was measured before (day 0) and after treatment with GLP^CM peptides (Day 2, 4, 7, 10) at 10 a.m. after an overnight fastening period. Data were presented in relation to blood glucose levels measured at day 0.
Best results were obtained with recombinant SEQ ID No.:6 (CM1) and synthetic SEQ ID No.:8 (CM3). In FIG. 5 (y-axis) the relative effect of the treatment is shown. Blood glucose at day=0 was set to 1. Untreated animals undergo continuous increase in blood glucose level over time, whereas animals treated with inventive peptides display grosso modo a continuous decrease of the blood glucose level over time.

B1: GLP-1(7-37)-IP2-RR-GLP2 (peptide)
chain: HAEGTFTSDVSSYLEGQAAKEFIAWLVKGRGRRDFPEEVAIAEELGRRHADGSFSDEMSTILDNLATRDFINWLIQTKITDKK
notes: 83 aa fusion peptide
As to B1, the “anti-hyperglycemia effect (blood glucose in relation to day 0)” value was “anti-hyperglycemia effect”.
